Changes are numbered by the printed parent chain. Numbers in names are those of the source. Blank lines part the entries; values can stand above or below the binder they belong to.
Biological target: T1, recombinant human Vascular Endothelial Growth Factor a (Homo sapiens, UniProt P15692-4, fluorescently labeled with Alexa-647)
T1 construct: human VEGFa, UniProt ID P15692, aa 27-191 as printed; the isoform is my reading of the limits 27-191; also called rhVEGFa; recombinant human VEGFa; source: recombinant
Test: MST; Alexa-647-labelled rhVEGFa constant at 1 nM in solution, mAb2 WT or variants in varying concentrations; 295 K; 25 mM sodium citrate pH 6.0, 125 mM NaCl, 0.05% Tween 20; triplicates; NanoTemper Monolith NT.115
Conditions: both partners purified

T1 sequence (P15692 other isoform, or with tags, fused parts or gaps): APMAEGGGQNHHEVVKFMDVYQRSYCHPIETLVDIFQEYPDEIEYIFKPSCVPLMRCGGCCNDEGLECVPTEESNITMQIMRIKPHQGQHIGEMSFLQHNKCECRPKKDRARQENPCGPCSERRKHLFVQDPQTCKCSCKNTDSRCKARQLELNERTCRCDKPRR

B1: mAb2_SL50K (antibody, V domains shown)
VH: EVQLVESGGGLVQPGGSLRLSCAASGFTISDYWIHWVRQAPGKGLEWVAGITPAGGYTYYADSVKGRFTISADTSKNTAYLQMNSLRAEDTAVYYCARFVFFLPYAMDYWGQGTLVTVSS
VL: DIQMTQSPSSLSASVGDRVTITCRASQDVSTAVAWYQQKPGKAPKLLIYKASFLYSGVPSRFSGSGSGTDFTLTISSLQPEDFATYYCQQSYTTPPTFGQGTKVEIK
notes: as the heavy chain variable region of m1 (PDB 2FJF); constant regions of an IgG1 isotype, already in the expression vector; as the light chain variable region of m1 (PDB 2FJF), with the stated change; light chain constant region from the expression vector; IgG1; also called S50K in the light chain; source: CHO K1, transiently transfected, purified (protein A)
Kd: 8.3 ± 1.4 nM

B2: mAb2_SL50D (antibody, V domains shown)
VH: B1 VH
VL: B1 VL with K50D
notes: as the heavy chain variable region of m1 (PDB 2FJF); constant regions of an IgG1 isotype, already in the expression vector; as the light chain variable region of m1 (PDB 2FJF), with the stated change; light chain constant region from the expression vector; IgG1; source: CHO K1, transiently transfected, purified (protein A)
Kd: 4.4 ± 1.3 nM

B3: mAb2_SL50K_SH21R_SH85R (antibody, V domains shown)
VH: B1 VH with S21R, S85R
VL: B1 VL
notes: as the heavy chain variable region of m1 (PDB 2FJF), with the stated changes; constant regions of an IgG1 isotype, already in the expression vector; as the light chain variable region of m1 (PDB 2FJF), with the stated change; light chain constant region from the expression vector; IgG1; also called Variant 7; source: CHO K1, transiently transfected, purified (protein A)
Kd: 57.1 ± 6.2 nM

B4: mAb2_SL52R_FH101P (antibody, V domains shown)
VH: B1 VH with F101P
VL: B1 VL with K50S, S52R
notes: as the heavy chain variable region of m1 (PDB 2FJF), with the stated change; constant regions of an IgG1 isotype, already in the expression vector; as the light chain variable region of m1 (PDB 2FJF), with the stated change; light chain constant region from the expression vector; IgG1; also called mAb2 FH101P SL52R; source: CHO K1, transiently transfected, purified (protein A)
binding result: no binding

Second part, the binder after the results:

binding result: no binding
B5: mAb2_SL52R_SH21R_SH85R_FH101P (antibody, V domains shown)
VH: B1 VH with S21R, S85R, F101P
VL: B1 VL with K50S, S52R
notes: as the heavy chain variable region of m1 (PDB 2FJF), with the stated changes; constant regions of an IgG1 isotype, already in the expression vector; as the light chain variable region of m1 (PDB 2FJF), with the stated change; light chain constant region from the expression vector; IgG1; also called mAb2 FH101P SL52R SH21R SH85R; source: CHO K1, transiently transfected, purified (protein A)

binding result: no binding
B6: mAb2_FH101P (antibody, V domains shown)
VH: B1 VH with F101P
VL: B1 VL with K50S
notes: as the heavy chain variable region of m1 (PDB 2FJF), with the stated change; constant regions of an IgG1 isotype, already in the expression vector; as the light chain variable region of m1 (PDB 2FJF); light chain constant region from the expression vector; IgG1; source: CHO K1, transiently transfected, purified (protein A)

binding result: no binding
B7: mAb2_SL50K_SH21R_SH85R_FH101P (antibody, V domains shown)
VH: B1 VH with S21R, S85R, F101P
VL: B1 VL
notes: as the heavy chain variable region of m1 (PDB 2FJF), with the stated changes; constant regions of an IgG1 isotype, already in the expression vector; as the light chain variable region of m1 (PDB 2FJF), with the stated change; light chain constant region from the expression vector; IgG1; also called mAb2 FH101P SL50K SH21R SH85R; source: CHO K1, transiently transfected, purified (protein A)

binding result: no binding
B8: mAb2_VH100R (antibody, V domains shown)
VH: B1 VH with V100R
VL: B1 VL with K50S
notes: as for B6

binding result: no binding
B9: mAb2_SL50K_FH101P (antibody, V domains shown)
VH: B1 VH with F101P
VL: B1 VL
notes: as the heavy chain variable region of m1 (PDB 2FJF), with the stated change; constant regions of an IgG1 isotype, already in the expression vector; as the light chain variable region of m1 (PDB 2FJF), with the stated change; light chain constant region from the expression vector; IgG1; also called mAb2 FH101P SL50K; variant 8; source: CHO K1, transiently transfected, purified (protein A)
